Source: patent US8524227B2, “Anti-IL-TIF antibodies” (ZymoGenetics, Inc., priority 2002, dated 2013)
Blank lines part the entries; values can stand above or below the molecule they belong to.

Columns and labels:
[1] = DSS-induced colitis mouse model; assay type: in vivo, mice; details: for histopathology screening score: 4% DSS in drinking water
From the text: Colitis was induced by DSS ingestion in Swiss Webster female mice from Charles River Laboratories. The mice were 10 and 11 weeks old at the start of the study. Mice were given 4% DSS in the drinking water for a period of 6 days (treated mice), or were given only normal drinking water (control mice). A Disease Activity Index clinical score (DAI) was used, which comprises a combination of measurements including stool quality, occult blood and weight loss. DAI was obtained daily for each mouse beginning one day after DSS treatment. After 6 days, DSS was removed from the drinking water of the treated mice. All mice were monitored by DAI clinical score until sacrifice at either 2, 7 or 10 days from the start of the study. On each of days 2 and 7, four DSS-treated mice and one control mouse were sacrificed. On day 10, four DSS-treated mice and two control mice were sacrificed. For all animals after sacrifice, the colon length was measured. Colon sections were fixed in 10% neutral buffered formalin for histologic analysis or frozen for mRNA extraction.
Histologic index scores were obtained following the method in reference 1. Generally, the colon sections were scored blinded by a pathologist for crypt scores, hyperplastic epithelium, crypt distortion and inflammation.
Daily, each mouse was graded as to a clinical score based on weight loss, stool consistence and intestinal bleeding. Higher scores were assigned for increasing amounts of weight loss, diarrhea and bleeding. The daily score for each mouse was the mean grade obtained from the three results/observations.

[2] = tested on: K-562 cells; experiment: K-562 cytotoxicity assay (MTT); assay type: cell-based, human; details: 72 h
Experimental: The K-562 cell line (CRL-243, ATCC) has attained widespread use as a highly sensitive in vitro target for cytotoxicity assays. K-562 blasts are multipotential, hematopoietic malignant cells that spontaneously differentiate into recognizable progenitors of the erythrocytic, granulocytic and monocytic series (Lozzio, B B et al., Proc. Soc. Exp. Biol. Med. 166: 546-550, 1981).
K562 cells were plated at 5,000 cells/well in 96-well tissue culture clusters (Costar) in DMEM phenol-free growth medium (Life Technologies) supplemented with pyruvate and 10% serum (HyClone). Next day, human recombinant IL-TIF (Example 19), BSA control or retinoic acid (known to be cytotoxic to K562 cells) were added. Seventy-two hours later, the vital stain MTT (Sigma, St Louis, Mo.), a widely used indicator of mitochondrial activity and cell growth, was added to the cells at a final concentration of 0.5 mg/ml. MTT is converted to a purple formazan derivative by mitochondrial dehydrogenases. Four hours later, converted MTT was solubilized by adding an equal volume of acidic isopropanol (0.04N HCl in absolute isopropanol) to the wells. Absorbance was measured at 570 nm, with background subtraction at 650 nm. In this experimental setting, absorbance reflects cell viability. Results shown in Table 7 are expressed as % cytotoxicity.

[3] = IL-TIF-induced acanthosis, subcutaneous mini-osmotic pump; assay type: in vivo, mice; details: for Average Acanthosis: score 0-4
Experimental: Mice (female, C3H/HEJ, 8 weeks old; Jackson Labs, Bar Harbor, Me.) were divided into three groups of six animals and one group of 4. Human BHK-produced IL-TIF was administered by constant infusion via mini-osmotic pumps, resulting in local and steady state serum concentrations proportional to the concentration of the IL-TIF contained in the pump. Alzet mini-osmotic pumps (model 2002; Alza corporation Palo Alto, Calif.) were loaded under sterile conditions with IL-TIF protein (A601F, 0.22 mL) diluted in phosphate buffered saline (pH 7.0) to a concentration within the pump of 2 mg/mL for group 1 mice, 0.2 mg/mL for group 2 mice, 0.02 mg/mL for group 3 mice, or 0 mg/mL (diluent only) for group 4 mice. Pumps were implanted subcutaneously in mice through a 1 cm incision in the dorsal skin, and the skin was closed with sterile wound closures. These pumps are designed to deliver their contents at a rate of 0.5 μl per hour over a period of 14 days. Using this nominal rate of infusion, dose levels were calculated to be 24 μg/day, 2.4 μg/day, 0.24 μg/day and 0 μg/day for groups 1-4, respectively.
At the end of the 14-day period, the mice were euthanized and an approximately 1 cm square sample of skin surrounding the pump area was collected from each mouse. The skin was fixed in 10% neutral buffered formalin. Formalin fixed samples of skin were embedded in paraffin, routinely processed, sectioned at 5 um and stained with hematoxylin and eosin. The tissues were microscopically examined in blinded fashion by an ACVP board certified veterinary pathologist. […] In addition, the skin of selected groups was imaged with a CoolSnap digital camera (Roper Scientific, Inc., San Diego, Calif.) and epidermal thickness measured using histomorphometry software (Scion Image for Windows, v. 4.02, Scion Corp., Frederick, Md.).

[4] = target: T1, IL-TIF (Homo sapiens, UniProt Q9GZX6); experiment: Effect of zcytor16 on IL-TIF-induced acanthosis; assay type: in vivo, mice; details: for Average Acanthosis: day 8, score 0-3
T1 construct: made in house; host or cells: BHK cells
T1 sequence (Q9GZX6 34-179): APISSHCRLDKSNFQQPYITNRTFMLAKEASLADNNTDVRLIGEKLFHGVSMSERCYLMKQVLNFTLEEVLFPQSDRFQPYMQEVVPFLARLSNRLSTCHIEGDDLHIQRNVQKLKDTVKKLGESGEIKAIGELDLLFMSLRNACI
Experimental: Mice (female, C3H/HEJ, 8 weeks old; Jackson Labs, Bar Harbor, Me.) were divided into eight groups of eight animals each. IL-TIF was administered by constant infusion via mini-osmotic pumps, as described in example 32a. Alzet mini-osmotic pumps (model 2001; Alza corporation Palo Alto, Calif.) were loaded under sterile conditions with IL-TIF protein (A#601F, 0.22 mL) diluted in phosphate buffered saline (pH 7.0) to a concentration within the pump of 0.22 mg/mL for group 1-2 mice, 0.45 mg/mL for group 3-4 mice, 0.9 mg/mL for group 5-6 mice, or 0 mg/mL (diluent only) for group 7-8 mice. These pumps are designed to deliver their contents at a rate of 0.5 μl per hour over a period of 14 days. Using this nominal rate of infusion, dose levels were calculated to be […] and 0 μg/day for groups 7-8. For each pair of groups at a given dose level of IL-TIF, one of the groups was injected three times (days 1, 3, and 5) with 0.1 mg of human zcytor16 Fc protein (described herein) by the interperitoneal route. The other group was injected in the same fashion with vehicle (PBS).
On day 8 of the study, mice were euthanized and an approximately 1 cm square sample of skin surrounding the pump area was collected from each mouse. The skin was fixed in 10% neutral buffered formalin. Formalin fixed samples of skin were embedded in paraffin, routinely processed, sectioned at 5 um and stained with hematoxylin and eosin. The tissues were microscopically examined in blinded fashion by an ACVP board certified veterinary pathologist. This study was scored in a different manner than the previous example. The number of layers in the epidermis, from stratum basalis to stratum granulosum, was determined Based on the results, the sections were scored as follows: O-normal (2-3 layers), 1-mild thickening (3-4 layers), 2-moderate thickening (4-6 layers) and 3-severe thickening (>6 layers).

[5] = target: T2, IL-TIF (Homo sapiens, UniProt Q9GZX6); experiment: Inhibition of IL-TIF-induced proliferation of BaF3/CRF2-4/zcytor11 cells by soluble receptors; assay type: cell-based; details: 100 pg/ml IL-TIF
T2 sequence (Q9GZX6 13-179 limits assumed): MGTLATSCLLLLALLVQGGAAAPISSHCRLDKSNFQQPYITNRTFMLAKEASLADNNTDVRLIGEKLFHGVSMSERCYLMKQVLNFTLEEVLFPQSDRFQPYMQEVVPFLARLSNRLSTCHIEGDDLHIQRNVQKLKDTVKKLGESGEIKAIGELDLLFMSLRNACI
Experimental: BaF3/CRF2-4/zcytor11 cells described herein were spun down and washed in PBS 2 times to ensure the removal of the mIL-3, and then spun a third time and re-suspended in the complete media (RPMI 1640, 10% FBS, 1% GlutaMAX, 1% Sodium Pyruvate), but without mIL-3 (hereinafter referred to as “mIL-3 free media”). Cells were then counted in a hemocytometer. Cells were plated in a 96-well format at 5000 cells per well in a volume of 100 μl per well using the mIL-3 free media.
IL-TIF protein (SEQ ID NO:3) was diluted to 200 pg/ml in mIL-3 free media. Zcytor16-Fc4 fusion protein (described herein) was diluted to 1 μg/ml in the mIL-3 free/IL-TIF media on the top row of the plate, and then diluted serially 1:2 down the remaining 7 rows on the 96-well plate, leaving a volume of 100 μl in each well. This was then added to the 100 μl of cells, for a final IL-TIF concentration of 100 pg/ml in all wells, and final Zcytor16-Fc4 concentrations of approximately […], 0.016, and 0.008 μg/ml in a total assay volume of 200 μl. CRF2-4/zcytor11-Fc4 was diluted to 8 μg/ml in the mIL-3 free/IL-TIF media on the top row of the plate, and then diluted serially 1:2 down the remaining 7 rows on the 96-well plate, leaving a volume of 100 μl in each well. This was then added to the 100 μl of cells, for a final IL-TIF concentration of 100 pg/ml in all wells, and final CRF2-4/zcytor11-Fc4 concentrations of approximately […], 0.25, 0.125 and 0.063 μg/ml, in a total assay volume of 200 The assay plates were incubated at 37° C., 5% CO2 for 4 days at which time Alamar Blue (Accumed, Chicago, Ill.) was added at […]. Plates were again incubated at 37° C., 5% CO2 for 16 hours. Alamar Blue gives a fluourometric readout based on number of live cells, and is thus a direct measurement of cell proliferation in comparison to a negative control. Plates were read on the Wallac Victor 2 1420 Multilabel Counter (Wallac, Turku, Finland) at wavelengths 530 (Excitation) and 590 (Emmssion). […] IL-TIF alone stimulated the cells 13-fold over background.

Molecule: dextran sulfate sodium [DSS]
- histopathology screening score ([1]; day 2): 8.8
- histopathology screening score ([1]; day 7): 21
- histopathology screening score ([1]; day 10): 18
- colon lengths vs non-treated controls ([1]; days 7 and 10): somewhat shorter

- skin histology ([4]; IL-TIF at 2.5, 5, 10 μg/day): epidermal thickening
- Average Acanthosis ([4]; pump 2.5 μg IL-TIF/day + 100 μL vehicle (3 injections)): 1.1
- Average Acanthosis ([4]; pump 5 μg IL-TIF/day + 100 μL vehicle (3 injections)): 2.0
- Average Acanthosis ([4]; pump 10 μg IL-TIF/day + 100 μL vehicle (3 injections)): 2.0
B1: IL-TIF: pro-inflammatory cytokine polypeptide, SEQ ID NO:3; also designated IL-22 (protein, listed as Homo sapiens)
chain: MGTLATSCLLLLALLVQGGAAAPISSHCRLDKSNFQQPYITNRTFMLAKEASLADNNTDVRLIGEKLFHGVSMSERCYLMKQVLNFTLEEVLFPQSDRFQPYMQEVVPFLARLSNRLSTCHIEGDDLHIQRNVQKLKDTVKKLGESGEIKAIGELDLLFMSLRNACI
- % Cytotoxicity ([2]; 100 ng/ml): 16.2%
- % Cytotoxicity ([2]; 300 ng/ml): 32%
- Average Acanthosis ([3]; 0.24 μg IL-TIF/day, 14 days): 2.2
- Measured Thickness ([3]; 2.4 μg IL-TIF/day, 14 days): 67.5 pixels
- Average Acanthosis ([3]; 2.4 μg IL-TIF/day, 14 days): 2.4
- Average Acanthosis ([3]; 24 μg IL-TIF/day, 14 days): 3.0
- skin histology ([3]; 2.4 and 24 μg/day): epidermal thickening
- cell infiltrates ([3]; not observed in vehicle treated controls): mononuclear cell infiltrates in the epidermis

- concentrations completely inhibiting proliferation [5]: 8 µg/mL
- concentrations partially inhibiting proliferation [5]: 0.125 to 4 µg/mL
- inhibition of the proliferative effect of IL-TIF [5]: much weaker inhibition
- inhibition at lowest concentration ([5]; 63 ng/ml): barely detectable
B2: CRF2-4/zcytor11-Fc4: secreted heterodimer of extracellular domains of hzcytor11 and CRF2-4, each fused to Fc4 (protein)
chain 1: HAPEDPSDLLQHVKFQSSNFENILTWDSGPEGTPDTVYSIEYKTYGERDWVAKKGCQRITRKSCNLTVETGNLTELYYARVTAVSAGGRSATKMTDRFSSLQHTTLKPPDVTCISKVRSIQMIVHPTPTPIRAGDGHRLTLEDIFHDLFYHLELQVNRTYQMHLGGKQREYEFFGLTPDTEFLGTIMICVPTWAKESAPYMCRVKTLPDRTWTGSGSGSGSEPRSSDKTHTCPPCPAPEAEGAPSVFLFPPKPKDTLMISRTPEVTCVVVDVSHEDPEVKFNWYVDGVEVHNAKTKPREEQYNSTYRVVSVLTVLHQDWLNGKEYKCKVSNKALPSSIEKTISKAKGQPREPQVYTLPPSRDELTKNQVSLTCLVKGFYPSDIAVEWESNGQPENNYKTTPPVLDSDGSFFLYSKLTVDKSRWQQGNVFSCSVMHEALHNHYTQKSLSLSPGKLVPRGSGSGGEYMPME
chain 2: MVPPPENVRMNSVNFKNILQWESPAFAKGNLTFTAQYLSYRIFQDKCMNTTLTECDFSSLSKYGDHTLRVRAEFADEHSDWVNITFCPVDDTIIGPPGMQVEVLDDSLHMRFLAPKIENEYETWTMKNVYNSWTYNVQYWKNGTDEKFQITPQYDFEVLRNLEPWTTYCVQVRGFLPDRNKAGEWSEPVCEQTTHDETVPSGSGSGSGSEPRSSDKTHTCPPCPAPEAEGAPSVFLFPPKPKDTLMISRTPEVTCVVVDVSHEDPEVKFNWYVDGVEVHNAKTKPREEQYNSTYRVVSVLTVLHQDWLNGKEYKCKVSNKALPSSIEKTISKAKGQPREPQVYTLPPSRDELTKNQVSLTCLVKGFYPSDIAVEWESNGQPENNYKTTPPVLDSDGSFFLYSKLTVDKSRWQQGNVFSCSVMHEALHNHYTQKSLSLSPGKGSGGHHHHHH
modifications: left off: small tags and cut ends
notes: secreted heterodimer of extracellular domains of hzcytor11 and CRF2-4, each fused to Fc4
